Where two headings read alike, the source gives them in different places.

The values that follow come from patent US20110191904A1.

Assay in all cases: cell-based or functional assay
In assay [1] the target is T1, Arabidopsis FAD3 (At2g29980) (Arabidopsis thaliana) (UniProt P48623).
T1 sequence (looked up): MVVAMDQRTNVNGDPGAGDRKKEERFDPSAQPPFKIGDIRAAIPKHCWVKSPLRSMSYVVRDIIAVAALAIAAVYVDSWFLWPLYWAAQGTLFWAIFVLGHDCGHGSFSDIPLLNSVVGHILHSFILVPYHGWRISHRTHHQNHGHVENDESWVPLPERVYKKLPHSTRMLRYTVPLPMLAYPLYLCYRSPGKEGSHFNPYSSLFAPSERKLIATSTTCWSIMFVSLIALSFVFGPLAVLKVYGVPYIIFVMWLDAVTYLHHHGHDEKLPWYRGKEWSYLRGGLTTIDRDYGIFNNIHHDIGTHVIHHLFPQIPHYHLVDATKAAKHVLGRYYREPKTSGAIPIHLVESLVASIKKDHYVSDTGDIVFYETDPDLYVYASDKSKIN

Assay [2] has as its target T2, Arabidopsis FAD2 (At3g12120) (Arabidopsis thaliana) (UniProt P46313).
T2 sequence (looked up): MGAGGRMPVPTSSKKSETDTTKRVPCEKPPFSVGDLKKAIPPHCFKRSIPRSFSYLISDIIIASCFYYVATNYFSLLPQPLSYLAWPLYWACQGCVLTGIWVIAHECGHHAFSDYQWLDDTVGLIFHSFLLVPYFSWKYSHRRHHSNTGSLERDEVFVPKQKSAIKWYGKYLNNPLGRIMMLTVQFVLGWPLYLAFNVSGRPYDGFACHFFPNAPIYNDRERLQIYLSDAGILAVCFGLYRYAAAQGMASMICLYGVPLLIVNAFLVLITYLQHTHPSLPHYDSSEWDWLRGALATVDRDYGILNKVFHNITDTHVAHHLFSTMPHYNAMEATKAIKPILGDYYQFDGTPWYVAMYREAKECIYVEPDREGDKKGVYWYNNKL

For assay [3], the target named is T1, Arabidopsis FAD3 (At2g29980) (Arabidopsis thaliana). This is another data set of the same source.
In assay [4] the target is T2, Arabidopsis FAD2 (At3g12120) (Arabidopsis thaliana). This is another data set of the same source.

On to “Arabidopsis cytochrome b5 Cb5-B (At5g48810) (from UniProt Q9ZWT2 1-140)”, for which, in assay [1], the 18:3 content of cb5 mutant yeast co-expressing both, 15 C, 18:2 fed (GC-FID) (mol percentage of total fatty acids) was determined as 11.8 and the 18:3 content of cb5 mutant yeast co-expressing both, 28 C, 18:2 fed (GC-FID) (mol percentage of total fatty acids) amounted to 8.2. In addition, in assay [2], the 16:2 content of cb5 mutant yeast co-expressing both, 15 C (GC-FID) (mol percentage of total fatty acids) is 1.3; the 16:2 content of cb5 mutant yeast co-expressing both, 28 C (GC-FID) (mol percentage of total fatty acids) is 1.2; the 18:2 content of cb5 mutant yeast co-expressing both, 15 C (GC-FID) (mol percentage of total fatty acids) worked out at 7.4; the 18:2 content of cb5 mutant yeast co-expressing both, 28 C (GC-FID) (mol percentage of total fatty acids) stood at 6.

B1: Arabidopsis cytochrome b5 Cb5-E (At2g32720) (protein, Arabidopsis thaliana, UniProt O48845 1-134, looked up)
chain: MGDEAKIFTLSEVSEHNQAHDCWIVINGKVYNVTKFLEDHPGGDDVLLSSTGKDATDDFEDVGHSESAREMMEQYYVGEIDPTTIPKKVKYTPPKQPHYNQDKTSEFIIKLLQFLVPLAILGLAVGIRIYTKSG
In assay [3], B1 registered a 18:3 content of cb5 mutant yeast co-expressing both, 15 C, 18:2 fed (GC-FID) (mol percentage of total fatty acids) of 12.6 and a 18:3 content of cb5 mutant yeast co-expressing both, 28 C, 18:2 fed (GC-FID) (mol percentage of total fatty acids) of 8.2.

B2: soybean (Glycine max) cytochrome b5 GmCb5-C2 (protein)
chain: MGSKTKTFTFEEVAKHNHRKDCWIIVKGKVYDVTPFLDDHPGGDEVLVTATEKDATTDFEDIGHSDSATQMMEKYFVGEVDTNTLPAQVTSNNSVRQPTQAPPAYNNQSSGFVVKMLQYIVPLLILAFAFGLQYYGKKNKSTESEN
Turning to B2, in assay [3], the 18:3 content of cb5 mutant yeast co-expressing both, 15 C, 18:2 fed (GC-FID) (mol percentage of total fatty acids) is 3.8 and the 18:3 content of cb5 mutant yeast co-expressing both, 28 C, 18:2 fed (GC-FID) (mol percentage of total fatty acids) is 3.9.

B3: soybean (Glycine max) cytochrome b5 GmCb5-C3 (protein)
chain: MASNPKTLTFEEVAKHNNKKDCWIIINGKVYDITPFLDEHPGGDEVLLTSTGKDATIDFEDVGHSDSAIEMMEKYFIGKVDTSTLPPKVSHSLPQPTQTHGAGNQSSGFVVKILQFLLPLLILGLAFALQYYGQKKHASTS
For B3, in assay [3], the 18:3 content of cb5 mutant yeast co-expressing both, 15 C, 18:2 fed (GC-FID) (mol percentage of total fatty acids) is 2 and the 18:3 content of cb5 mutant yeast co-expressing both, 28 C, 18:2 fed (GC-FID) (mol percentage of total fatty acids) came to 2.6.

B4: Arabidopsis cytochrome b5 Cb5-C (At2g46650) (protein, Arabidopsis thaliana, UniProt Q9ZNV4 1-132, looked up)
chain: MANLISFHDVAKHKCKNDCWILIHGKVYDISTFMDEHPGGDNVLLAVTGKDASIDFEDVNHSKDAKELMKKYCIGDVDQSTVPVTQQYIPPWEKESTAAETTKEESGKKLLIYLIPLLILGVAFALRFYNNK
In assay [4], B4 showed a 16:2 content of cb5 mutant yeast co-expressing both, 15 C (GC-FID) (mol percentage of total fatty acids) of 1.2; a 16:2 content of cb5 mutant yeast co-expressing both, 28 C (GC-FID) (mol percentage of total fatty acids) of 0.9; a 18:2 content of cb5 mutant yeast co-expressing both, 15 C (GC-FID) (mol percentage of total fatty acids) of 7.2; a 18:2 content of cb5 mutant yeast co-expressing both, 28 C (GC-FID) (mol percentage of total fatty acids) of 6.4.
